Data as given in patent US11945858B2, “Antibodies and antibody fragments against HNAV1.7 channel and their use in pain and cancer indications” (NATIONAL RESEARCH COUNCIL OF CANADA, priority 2018, dated 2024).
Where “and” joins values, the source holds several entries; their conditions need not be identical. Equal entries are not always repeated. Entries after “also recorded” stand apart in the source; their conditions may differ.

Columns and labels:
[1] = system: glioblastoma U87MGvIII cells; assay: Soft agar assay, U87MGvIII
glioblastoma U87MG cells = assay: Soft agar assay, U87MG
[2] = system: ovarian cancer SKOV-3 cells; assay: Soft agar assay, SKOV-3
[3] = system: lung metastasis of prostate cancer; conditions: rat, in vivo; cited from earlier work
FC5DIE3IR [4] = target: T1, FC5DIE3IR (Homo sapiens, UniProt Q15858); assay: Evaluation of apparent affinity of purified mAbs in ELISA; format: binding; conditions: purified mAb, OD 405 nm
T1 construct: The supernatant was collected and loaded on a 5 ml MabSelect™ SuRe™ column; made in house; host or cells: CHO-3E7 (transient, pTT5 vector), purified from supernatant
Description: Screening. Hybridoma supernatants were screened by ELISA to detect specific binders. To this end, 96-well half-area plates (Costar #3690) were coated with 25 μl of FC5DIE3IR or FC5-VHH or FC5-hFc-1X0 at 5 μg/ml in PBS and incubated overnight at 4° C. Microplates were washed 3 times with PBS, blocked with PBS-BSA 1%, and 25 μl of hybridoma supernatants were added and incubated at 37° C., 5% CO2 for 2 hours. Plates were washed 4 times with PBS-Tween 20 0.05% and incubated for one hour at 37° C., 5% CO2 with 25 μl of secondary antibody alkaline phosphatase conjugated F(ab′)2 goat anti-mouse IgG Fc-gamma specific (Jackson Immunoresearch #115-056-071) diluted 1/3000 in blocking buffer. After 4 washes with PBS-Tween 20 0.05%, 25 μl of a 1 mg/ml pNPP substrate solution was added and further incubated for one hour at 37° C. OD405 nm measurements were done using a microplate reader (Spectramax 340 PC, Molecular Devices).
Evaluation of apparent affinity in ELISA. Purified antibodies were assessed for their binding activity by ELISA in a dose-dependent binding curve. […] The data were analyzed with GraphPad Prism software using one-site specific binding-with Hill slope non-linear regression curve fit model to determine Bmax (maximum specific binding) and Kdapp (concentration needed to achieve a half-maximum binding at equilibrium) for each mAb tested. […]

FC5DIE3IR [5] = target: T1, FC5DIE3IR; assay: Surface Plasmon Resonance of mAbs, FC5DIE3IR; format: binding; conditions: Fc-captured mAb, FC5-DIE3IR flowed; SCK; 25 °C
Description: (§1) Surface Plasmon Resonance of mAbs. FC5 and FC5DIE3IR proteins were SEC purified using a Superdex 75 column (GE Healthcare) connected to an AKTAPurifier (GE Healthcare) in HBS-EP+ running buffer (10 mM HEPES, pH 7.4, containing 150 mM NaCl, 3 mM EDTA and 0.05% P20) at a flow rate of 1 ml/min. Monomeric eluted peaks were used to flow over Fc-capture 3A8 mAb surfaces. To prepare the 3A8 mAb surfaces, approximately 6000 RUs of anti-mouse IgG (GE Healthcare) was first immobilized on CM5 Series S sensor chips (GE Healthcare) at pH 5.0, using standard amine coupling methods previously reported (Hussack et al., 2011) and according to the manufacturer's instructions (GE Healthcare). HBS-EP running buffer used for SPR experiments. The mAb 3A8 was captured on the anti-mouse IgG surface using 10 μg/ml of mAb, 30 sec contact time and flow rate of 10 μl/min. IMAC-purified DI-D VHH was passed through a Superdex 75 (GE Healthcare) column for SEC purification in HBS-EP buffer (10 mM HEPES, pH 7.4, containing 150 mM NaCl, 3 mM EDTA and 0.005% P20), connected to an AKTAPurifier (GE Healthcare) at a flow rate of 1 ml/min. Test binding experiments of FC5 control and FC5DIE3IR involved flowing 1 μM concentrations of SEC-pure material over the mAb surface at a flow rate of 30 μl/min for 5 min. Surfaces could be regenerated using 10 mM glycine, pH 1.7, with a 120 sec pulse at 20 μl/min. All SPR experiments were evaluated with Biacore T200 Software v 3.0. For kinetic analysis, single cycle kinetic analysis was used by flowing a range of FC5DIE3IR concentrations (320 nM-20 nM) at a flow rate of 30 μl/min, with 600 sec contact time and 1200 sec dissociation. Regeneration conditions were the same as above. Data were fit to a 1:1 binding model and analyzed using the Biacore T200 Software v3.0.
(§2) Surfaces were regenerated by washing with running buffer (HBS-EP). Data were analyzed with BIAevaluation 4.1 software as described (Hussack et al., 2011) and affinities determined using the steady state binding model.
(§3) Surface Plasmon Resonance (SPR) for monoclonal antibodies.

CHO-3E7 = assay: Cell-ELISA on live CHO-3E7 cells; format: cell-based, Chinese hamster; conditions: hybridoma supernatant; OD450 nm; duplicate 1
Description: Cell-ELISA. Sterile 96-well plates (Costar #3595) were pre-treated with 50 μl/well of branched polyethyleneimine (PEI, Sigma Cat #408727) at 25 μg/ml in PBS for 30 min at room temperature. PEI was removed and CHO-3E7 or hNAv1.7-CHO (ChanTest cat #CT4003) were seeded at 6×10^5 cells per well in FreeStyle F17 Expression Medium (Gibco Cat #A1383501) and incubated overnight at 37° C., 5% CO2. Microplates were blocked with Starting block (Thermofisher Cat #37538) for 30 min at room temperature, and 50 μl of hybridoma supernatants were added and incubated at 4° C. for 3 h. Plates were washed 5 times with PBS and incubated for one hour at 4° C. with 50 μl of secondary antibody HRP-conjugated F(ab′)2 goat anti-mouse IgG (H+L) (Jackson Immunoresearch #115-036-062) diluted 1/5000 in blocking buffer. After 10 washes with PBS, 50 μl of TMB substrate solution (Pierce Cat #34021) was added and further incubated for 60 min at room temperature. Twenty-five μl/well of stop solution ([…] 1M) was added and OD450 nm measurements were done using a microplate reader (Spectramax 340 PC, Molecular Devices).

FC5DIE3IR [6] = target: T1, FC5DIE3IR; assay: Hydrogen-Deuterium Exchange Mass Spectrometry (HDX-MS); format: binding; conditions: labelling 1, 10 and 60 min
VHH FC5 = assay: Surface Plasmon Resonance of mAbs, FC5 control; format: binding; conditions: 25 °C
Chain of VHH FC5 (as listed by the source): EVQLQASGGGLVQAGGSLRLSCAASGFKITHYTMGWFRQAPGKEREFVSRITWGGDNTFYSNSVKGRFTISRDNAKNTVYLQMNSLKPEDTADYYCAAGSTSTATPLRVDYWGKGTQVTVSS
Description: as §1, §2, §3

hNav1.7 channels = hNav1.7 channels (Homo sapiens, UniProt Q15858, W1161R); assay: Patch-clamp whole-cell recordings in hNav1.7-HEK293 cells; format: cell-based; conditions: example recordings; 1-3 μM

Molecule	Reduction of colony formation [1] [%]	Reduction of colony formation (glioblastoma U87MG cells)	Reduction of colony formation [2] [%]	Reduction of the number of lung metastasis [3] [%]	Bmax (maximum specific binding) (FC5DIE3IR [4])	ka (FC5DIE3IR [5]) [M⁻¹ s⁻¹]	kd (FC5DIE3IR [5]) [s⁻¹]	ELISA on live cells (duplicates) CHO-3E7 (CHO-3E7)	Stabilization of FC5DIE3IR in response to mAb binding (residues, differential HDX-MS) (FC5DIE3IR [6])	Binding to FC5 control (comment, in words) (VHH FC5; SPR)	ka (VHH FC5; target FC5) [M⁻¹ s⁻¹]	kd (VHH FC5; target FC5) [s⁻¹]	Effect on hNav1.7 currents (in words) (hNav1.7 channels)
NC1=N[C@H](O)[C@H]2[C@H]3O[C@]4(O)O[C@@H]([C@@H](O)[C@@]2(N1)[C@@H]4O)[C@]3(O)CO [TTX, tetrodotoxin, reference compound]	55	75% and 84%	70	> 40	–	–	–	–	–	–	–	–	–
1G5: mouse mAb IgG1, k binding both FC5 and DIE3IR, no effect on hNav1.7 currents; negative control; SEQ ID NO: 21 and 27 (antibody, V domains shown, Heavy chain of the 1G5 and 1G9 antibodies without leader sequence; Light chain of the 1G5 and 1G9 antibodies without leader sequence) VH: QVQLQQPGAELVKPGASVKLSCKASGYTFTSYWINWVKQRPGQGLEWIGNIYPGNSNTNYNEKFKSKATLTVDKSSSTAYMQLSSLTSEDSAVYYCARRYYYDYDDAMDYWGQGTSVTVSSAKTTPPSVYPLAP VL: DIVLTQSPASLAVSLGQRATISCRASESVDSYGNGFMHWYQQKPGQPPKLLIYRASNLESGIPARVSGSGSRTDFTLTINPVEADDVATYYCQQSNEDPWTFGGGTKLEIKRADAAPTVSIFPPSS	–	–	–	–	1.7	72900	0.0136	0.008	no effect on conformational stability	Binding to both	289000	0.017	no effect; also recorded: did not reduce hNav1.7 currents
